Where no end group is shown, it is not given here. The star is where a group is joined. FITC = O=C1OC2(c3ccc(O)cc3Oc3cc(O)ccc32)c2ccc(NC(=S)*)cc21

Experiment [1] concerns the target T1, S. cerevisiae Csm1 globular domain (residues 69–190 of 190), untagged (S. cerevisiae, UniProt P25651 69-190).
T1 construct: S. cerevisiae Csm1, globular domain, residues 69-190 of 190; also called Sc Csm1^69–190; untagged Csm1
T1 sequence (looked up): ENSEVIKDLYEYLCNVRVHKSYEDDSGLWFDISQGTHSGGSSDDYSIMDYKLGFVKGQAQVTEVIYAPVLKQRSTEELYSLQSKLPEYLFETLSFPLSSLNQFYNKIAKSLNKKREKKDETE
As to the kind of experiment: ITC; Microcal ITC 200; His6-MBP-fused Dsn1 fragments at 1–1.5 mM injected into a sample cell containing untagged Csm1 at 100–200 μM; protein buffer (20 mM Tris-HCl pH 7.5, 5% glycerol) plus 300 mM NaCl and 1 mM dithiothreitol. Particulars: both partners purified. A general note: ITC needs no label: the signal is the heat of the interaction.

Experiment [2] addresses T2, S. pombe Csm1 C-terminal globular domain (residues 125–261), wild type (S. pombe, UniProt O13684 125-261).
T2 construct: S. pombe Csm1 (also called Pcs1), C-terminal globular domain, residues 125-261; also called S. pombe Csm1^125–261; Sp Csm1; source: E. coli Rosetta2 (DE3) pLysS, purified
T2 sequence (looked up): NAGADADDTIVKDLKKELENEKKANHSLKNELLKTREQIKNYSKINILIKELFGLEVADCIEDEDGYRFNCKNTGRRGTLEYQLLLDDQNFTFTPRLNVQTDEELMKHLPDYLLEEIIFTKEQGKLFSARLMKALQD
As to the kind of experiment: fluorescence polarisation; Csm1 125–261 at 20 nM-250 μM with 20 nM FITC-labelled Mis13 5–17 peptide; 20 mM Tris 7.5, 300 mM NaCl, 10% glycerol, 0.01% NP-40, 1 mM DTT; triplicate; single-site binding model. Particulars: both partners purified. Background: Fluorescence polarisation rises when a labelled molecule tumbles more slowly, as on binding a larger partner.

B1: His6-MBP-fused S. cerevisiae Dsn1 Box 1-2-3 region (residues 71–110 of 576) (domain or fragment, UniProt P40568 71-110, looked up)
chain: DLKFKRHKNKHIQGFPTLGERLDNLQDIKKAKRVENFNSS
notes: S. cerevisiae Dsn1, Box 1-2-3 region, residues 71-110 of 576; also called Sc Dsn1^71–110; His6-MBP-fused Dsn1 fragment; source: E. coli Rosetta2 (DE3) pLysS, purified
In the case of B1, the dissociation constant (Kd) in experiment [1] came to 12 µM.

B2: Sp Mis13 5–17 peptide (Dsn1-N/Box 1), fluorescein isothiocyanate-labelled (peptide)
peptide: {FITC}-PEEQEGFVFVRKG
notes: S. pombe Mis13 (Dsn1), Dsn1-N/Box 1 region, residues 5-17; also called Sp Dsn1-N/Box 1 (residues 5–17); S. pombe Mis13 Dsn1-N region
Take B2: the dissociation constant (Kd) in experiment [2] came out at 22 µM.

A word on the Kd: it is the free concentration of one partner at which half of the binding sites on the other are occupied at equilibrium, for simple one-to-one binding.

Source of the values: publication PMC6823300, “The molecular basis of monopolin recruitment to the kinetochore” (Chromosoma, 2019).
